Test [1] deals with T1, His-tagged soluble human ROR1 (shROR1-His) (human, UniProt Q01973 30-406).
T1 construct: also called ROR1 protein; immobilized ROR1; not shown: His-Tag
The test is described as follows: SPR (Biacore). On the technique in general: In SPR one partner is held on a chip, and binding of the other changes the refractive index at the surface.

Test [2] concerns the target T1, His-tagged soluble human ROR1 …. As to the kind of experiment: SPR (Biacore), shROR1-His captured on anti-PentaHis surface, diabody 6.25-100 nM as analyte. The procedure: The binding affinity of DART-1, DART-A, DART-B, and DART-C was investigated using Biacore analysis in which each diabody construct was passed over immobilized ROR1. Briefly, shROR1-His was captured on immobilized anti-PentaHis surface and was incubated with DART-1, DART-A, DART-B or DART-C at 6.25-100 nM, and the kinetics of binding was determined via Biacore analysis.

For test [3] the target is unchanged. The test is described as follows: sandwich ELISA: plate coated with shROR1-His, serial dilutions of diabody, bound diabody detected with biotinylated CD3 and streptavidin-HRP; y axis 'Mean Value'. The procedure:
The ability of the bispecific ROR1×CD3 two and three chain diabodies DART-1 and DART-A to bind both ROR1 and CD3 was examined by a sandwich ELISA. Briefly, microtiter plates were coated with shROR1-His, the plates were washed and incubated with three-fold serial dilutions of DART-1 or DART-A. The amount of diabody binding to the immobilized ROR1 was assessed using a biotinylated CD3 detected with Streptavidin-HRP. All samples were analyzed on a plate reader and binding curves generated. […] The cells were washed twice incubated with biotin-conjugated mouse anti-EK-coil antibody that recognizes the E-coil/K-coil (EK) heterodimerization region (100 μL of 1 μg/mL mixed with 1:500 diluted streptavidin-phycoerythrin) for 45 min. The cells were then washed and resuspended with FACS buffer, and analyzed with a BD FCS Canto II flow cytometer using FlowJo v10 software.
On the technique in general: In an ELISA, binding on a coated surface is turned into a signal by an enzyme label.

T1 sequence (Q01973 30-406): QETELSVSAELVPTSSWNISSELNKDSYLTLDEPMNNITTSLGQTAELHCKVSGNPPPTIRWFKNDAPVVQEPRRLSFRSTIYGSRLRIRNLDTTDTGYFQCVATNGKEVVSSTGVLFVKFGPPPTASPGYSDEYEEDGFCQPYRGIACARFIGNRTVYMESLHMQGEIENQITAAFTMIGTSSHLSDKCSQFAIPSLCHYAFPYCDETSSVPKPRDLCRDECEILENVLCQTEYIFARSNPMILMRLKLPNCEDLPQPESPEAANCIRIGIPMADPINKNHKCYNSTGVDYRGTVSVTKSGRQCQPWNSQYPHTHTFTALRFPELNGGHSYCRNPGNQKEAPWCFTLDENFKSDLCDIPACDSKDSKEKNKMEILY

B1: DART-C (bispecific antibody)
chain 1: QLVLTQSPSASASLGSSVKLTCTLSSGHKTDTIDWYQQQPGKAPRYLMKLEGSGSYNKGSGVPDRFSGSSSGADWYLTISSLQSEDEADYYCGTDYPGNYLFGGGTQLTVLGGGGSGGGGEVQLVESGGGLVQPGGSLRLSCAASGFTFSTYAMNWVRQAPGKGLEWVGRIRSKYNNYATYYADSVKGRFTISRDDSKNSLYLQMNSLKTEDTAVYYCVRHGNFGNSYVSWFAYWGQGTLVTVSSASTKGEVAACEKEVAALEKEVAALEKEVAALEKGGGDKTHTCPPCPAPEAAGGPSVFLFPPKPKDTLMISRTPEVTCVVVDVSHEDPEVKFNWYVDGVEVHNAKTKPREEQYNSTYRVVSVLTVLHQDWLNGKEYKCKVSNKALPAPIEKTISKAKGQPREPQVYTLPPSREEMTKNQVSLWCLVKGFYPSDIAVEWESNGQPENNYKTTPPVLDSDGSFFLYSKLTVDKSRWQQGNVFSCSVMHEALHNHYTQKSLSLSPGK
chain 2: QAVVTQEPSLTVSPGGTVTLTCRSSTGAVTTSNYANWVQQKPGQAPRGLIGGTNKRAPWTPARFSGSLLGGKAALTITGAQAEDEADYYCALWYSNLWVFGGGTKLTVLGGGGSGGGGQEQLVESGGGLVQPGGSLRLSCAASGFTFSDYYMSWVRQAPGKGLEWVATIYPSSGKTYYADSVKGRLTISSDNAKDSLYLQMNSLRAEDTAVYYCTRDSYADDAALFDIWGQGTTVTVSSASTKGKVAACKEKVAALKEKVAALKEKVAALKE
chain 3: not shown
notes: Three chain Fc Region-containing ROR1×CD3 diabody
On to B1, for which the “fold enhancement of binding relative to DART-A” value in test [1] was greater than 2 fold. The Kd in test [2] came out at 0.25 nM. The “EC50 (read off the curve)” value in test [3] was roughly 0.8 nM.

What is called Kd is the constant that tells how readily two partners part at equilibrium. High values mean a looser complex, low ones a tighter complex. As usually defined, the EC50 (read off the curve) is the midpoint of the concentration-response curve.
